The text below walks through data of article PMC11088704, “Structural basis for the regulation of plant transcription factor WRKY33 by the VQ protein SIB1” (Communications Biology, 2024).

What is called stoichiometry N is a count of units in the complex or per binding partner. For orientation: Kd means a measure of binding affinity in units of concentration.

The target of data set [1] is T1, WRKY33 C-terminal DNA-binding domain (WRKY33_C) (Arabidopsis thaliana, UniProt Q8S8P5 331-422).
T1 construct: it holds I350 and the truncation V352-A422 is derived from it; Zinc-finger domain; 20 uM ZnSO4 in the buffers; Construct limits may be read from PDB 8K31; also called WRKY33 cDBD; WK33; source: E. coli BL21(DE3), purified (Ni-NTA, gel filtration Superdex-75)
T1 sequence (Q8S8P5 331-422): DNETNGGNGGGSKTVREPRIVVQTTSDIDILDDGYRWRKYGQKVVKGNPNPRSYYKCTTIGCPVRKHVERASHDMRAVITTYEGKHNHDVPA
Kind of data set: cross-linking; EGS crosslinker, 30-fold molar excess; WRKY33_C and SIB1 each 90 uM; 20 mM HEPES pH 7.0, 50 mM NaCl; room temperature; Tricine-SDS-PAGE. To be noted: both partners purified.

For a further data set, the target named is T2, WRKY33_C R366C mutant (Arabidopsis thaliana, UniProt Q8S8P5 331-422, R366C).
T2 construct: WRKY33, Arabidopsis, C-terminal DBD; also called R336 (as printed once); source: E. coli, expressed and purified similarly to the wild-type protein
T2 sequence (Q8S8P5 331-422 R366C): as the sequence (Q8S8P5 331-422) above, with R36C counted along it
Briefly: NMR titration; 2D 1H-15N HSQC of 15N-labeled SIB1 free and in complex with unlabeled WRKY33_C or its mutants; 30 mM MES pH 6.0, 50 mM NaCl, 20 uM ZnSO4, 25 °C. Conditions: both partners purified.

The target in another data set is T3, WRKY33_C K376C mutant (Arabidopsis thaliana, UniProt Q8S8P5 331-422, K376C).
T3 construct: WRKY33, Arabidopsis, C-terminal DBD; The mutant without the maleimide-EDTA tag; source: E. coli, expressed and purified similarly to the wild-type protein
T3 sequence (Q8S8P5 331-422 K376C): as the sequence (Q8S8P5 331-422) above, with K46C counted along it
Described as above. To be noted: both partners purified.

A further data set addresses T4, WRKY33_C D357C mutant (Arabidopsis thaliana, UniProt Q8S8P5 331-422, D357C).
T4 construct: WRKY33, Arabidopsis, C-terminal DBD; The mutant without the maleimide-EDTA tag; source: E. coli, expressed and purified similarly to the wild-type protein
The data set is described as above. Conditions: both partners purified.

For data set [2], the target named is T5, spin-labeled WRKY33_C K376C (Arabidopsis thaliana, UniProt Q8S8P5 331-422, K376C, Cys376 labelled with N-[2-maleimidoethyl]ethylenediamine-N,N,N',N'-tetraacetic acid monoamide, chelating Mn^2+ (paramagnetic) or Ca^2+).
T5 construct: WRKY33, Arabidopsis, C-terminal DBD; also called K376C spin-labeled; Ca^2+-chelated WRKY33_C mutant; source: E. coli, purified as the wild type; labelled, then purified on a cation exchange column
T5 sequence (Q8S8P5 331-422 K376C): as the sequence (Q8S8P5 331-422) above, with K46C counted along it
The description is as above. Conditions: both partners purified.

Data set [3] deals with T6, spin-labeled WRKY33_C D357C (Arabidopsis thaliana, UniProt Q8S8P5 331-422, D357C, Cys357 labelled with N-[2-maleimidoethyl]ethylenediamine-N,N,N',N'-tetraacetic acid monoamide, chelating Mn^2+ (paramagnetic) or Ca^2+).
T6 construct: WRKY33, Arabidopsis, C-terminal DBD; also called D357C spin-labeled; Ca^2+-chelated WRKY33_C mutant; source: E. coli, purified as the wild type; labelled, then purified on a cation exchange column
T6 sequence (Q8S8P5 331-422 D357C): as the sequence (Q8S8P5 331-422) above, with D27C counted along it
The data set is described as above. To be noted: both partners purified.

The target in data set [4] is T7, spin-labeled WRKY33_C R366C (Arabidopsis thaliana, UniProt Q8S8P5 331-422, R366C, Cys366 labelled with N-[2-maleimidoethyl]ethylenediamine-N,N,N',N'-tetraacetic acid monoamide, chelating Mn^2+ (paramagnetic) or Ca^2+).
T7 construct: WRKY33, Arabidopsis, C-terminal DBD; also called R366C spin-labeled; Ca^2+-chelated WRKY33_C mutant; source: E. coli, purified as the wild type; labelled, then purified on a cation exchange column
T7 sequence (Q8S8P5 331-422 R366C): as the sequence (Q8S8P5 331-422) above, with R36C counted along it
The description is as above. To be noted: both partners purified.

The target of data set [5] is T1, WRKY33 C-terminal DNA-binding domain …. Kind of data set: SEC; Superdex-75; Trx-SIB1 incubated with WRKY33_C before loading; protein standards for calibration. Conditions: both partners purified. In general terms: In gel filtration, larger molecules generally elute earlier.
Data set [6] deals with T8, WRKY33_C-I360D mutant protein (Arabidopsis thaliana, UniProt Q8S8P5 331-422, I360D).
T8 construct: WRKY33, Arabidopsis, C-terminal DBD; source: E. coli BL21(DE3), purified (Ni-NTA, gel filtration Superdex-75)
T8 sequence (Q8S8P5 331-422 I360D): as the sequence (Q8S8P5 331-422) above, with I30D counted along it
Kind of data set: NMR titration; 2D 1H-15N HSQC of 15N-labeled WRKY33_C (or its mutants), 0.1 mM, with SIB1 or SIB1 peptides added at 2:1 (5:1 also for SIB1^40–60 and SIB1^55–69); 30 mM MES pH 6.0, 50 mM NaCl, 20 uM ZnSO4, 10% D2O, 25 °C. Conditions: both partners purified.

Data set [7] concerns the target T9, WRKY33_C-I358D mutant protein (Arabidopsis thaliana, UniProt Q8S8P5 331-422, I358D).
T9 construct: WRKY33, Arabidopsis, C-terminal DBD; source: E. coli BL21(DE3), purified (Ni-NTA, gel filtration Superdex-75)
Described as above. Conditions: both partners purified.

Another data set deals with WRKY33_C (Arabidopsis thaliana, UniProt Q8S8P5 345-422). Briefly: EMSA; no SIB1; estimated from band intensity (an earlier response in the peer review file prints 150 uM, called sub-micromolar); EMSA: NMR buffer (composition not given in material) with 100 mM NaCl, 1.0 ng dsDNA in 20 ul, room temperature 20 min, SIB1:WRKY33_C 2:1; gel in 0.5x TBE, GelRed stain. To be noted: protein: recombinant; tags: C-terminal 6xHis; blunt.
Chain of WRKY33_C (Q8S8P5 345-422): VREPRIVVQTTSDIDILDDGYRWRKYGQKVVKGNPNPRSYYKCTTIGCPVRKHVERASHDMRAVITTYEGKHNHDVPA

In a further data set the target is T10, WRKY33_C V351A mutant (Arabidopsis thaliana, UniProt Q8S8P5 331-422, V351A).
T10 construct: WRKY33, Arabidopsis, C-terminal DBD; source: E. coli BL21(DE3), purified (Ni-NTA, gel filtration Superdex-75)
T10 sequence (Q8S8P5 331-422 V351A): as the sequence (Q8S8P5 331-422) above, with V21A counted along it
Briefly: NMR titration; 2D 1H-15N HSQC of 15N-labeled WRKY33_C (or its mutants), 0.1 mM, with SIB1 or SIB1 peptides added at 2:1 (5:1 also for SIB1^40–60 and SIB1^55–69); 30 mM MES pH 6.0, 50 mM NaCl, 20 uM ZnSO4, 10% D2O, 25 °C. To be noted: both partners purified.

Another data set deals with T11, WRKY33_C I350A mutant (Arabidopsis thaliana, UniProt Q8S8P5 331-422, I350A).
T11 construct: WRKY33, Arabidopsis, C-terminal DBD; source: E. coli BL21(DE3), purified (Ni-NTA, gel filtration Superdex-75)
T11 sequence (Q8S8P5 331-422 I350A): as the sequence (Q8S8P5 331-422) above, with I20A counted along it
The description is as above. Conditions: both partners purified.

T9 sequence (Q8S8P5 331-422 I358D): as the sequence (Q8S8P5 331-422) above, with I28D counted along it
T4 sequence (Q8S8P5 331-422 D357C): as the sequence (Q8S8P5 331-422) above, with D27C counted along it

B1: SIB1^11-100 (T11-L100 segment of Arabidopsis sigma factor-binding protein SIB1) (domain or fragment, Arabidopsis thaliana, UniProt Q9LDH1 11-100, looked up)
chain: TTSLDKKKPSPVSRKSPKQKKKTTSTNKPIKVRYISNPMRVQTCASKFRELVQELTGQDAVDLQPEPIYSPSSDDHNLSPPAENLAPRVL
notes: SIB1 (VQ23), Arabidopsis, residues T11-L100; the N-terminal chloroplast targeting signal and the C-terminal 51 residues are deleted; Used unlabelled, 15N- or 13C/15N-labelled; also called VQ23; source: E. coli BL21(DE3), purified (Ni-NTA, gel filtration Superdex-75)
With B1, the “stoichiometry N” value in data set [1] was 1. Also, the binding result (with WRKY33_C R366C mutant; in the data set with WRKY33_C K376C mutant; in the data set with WRKY33_C D357C mutant; in data set [2]; in data set [3]; in data set [4]) was “binds” each time.

B2: Trx-SIB1 fusion protein (thioredoxin-fused SIB1) (domain or fragment, Arabidopsis thaliana, UniProt Q9LDH1 11-100, looked up)
chain: TTSLDKKKPSPVSRKSPKQKKKTTSTNKPIKVRYISNPMRVQTCASKFRELVQELTGQDAVDLQPEPIYSPSSDDHNLSPPAENLAPRVL
notes: SIB1 (VQ23), Arabidopsis; limits are not restated for the Trx fusion; The methods give 24 kDa for 'Trx'
B2: the “stoichiometry N” value in data set [5] was determined as 1.

B3: SIB1^mini-V51R mutant peptide (peptide, UniProt Q9LDH1 46-69, looked up)
peptide: SNPMRRQTCASKFRELVQELTGQD
notes: SIB1 (VQ23), Arabidopsis, residues 46-69 with V51R
Consider B3, for which the binding result in data set [6] and in data set [7] was “binds” each time.

B4: W-box DNA (dsDNA)
DNA 1: AAAGTTGACCAA
DNA 2: TTGGTCAACTTT
Regarding B4, in the data set with WRKY33_C, the Kd was approximately 150 nM.

B5: SIB1^mini (SIB1^46–69 peptide, minimal SIB1 construct) (peptide, UniProt Q9LDH1 46-69, looked up)
peptide: SNPMRVQTCASKFRELVQELTGQD
notes: SIB1 (VQ23), Arabidopsis, residues 46-69: the VQ motif and its preceding segment; source: synthetic peptide
Take B5: the binding result with WRKY33_C V351A mutant and with WRKY33_C I350A mutant was “binds” throughout.
